# Measurements taken from paper PMC9603599, “NAC1 Maintains Root Meristem Activity by Repressing the Transcription of E2Fa in Arabidopsis”.
# Molecular target: T1, GST-NAC1(1-199) (Arabidopsis thaliana, UniProt Q84TE6 1-199)
# T1 sequence: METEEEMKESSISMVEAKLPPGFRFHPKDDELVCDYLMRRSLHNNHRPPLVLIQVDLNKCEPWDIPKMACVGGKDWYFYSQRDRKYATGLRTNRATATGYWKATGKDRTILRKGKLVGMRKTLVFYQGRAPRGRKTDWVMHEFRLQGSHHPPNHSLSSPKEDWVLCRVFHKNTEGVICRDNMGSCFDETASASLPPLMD
# Experiment: EMSA; LightShift Chemiluminescent EMSA kit (Thermo 20148), manufacturer's instructions; buffer, salt, pH and temperature not stated
# Details: protein: recombinant, tags: GST (N-terminal, pGEX-4T-1), chain copies: 2, label: biotin
Binder,"binding result (blunt, P2 = F2/R2 by number)","binding result (printed strands differ by one nt: F1 has CCCGTT where R1 complement gives CCGTT (1-nt bulge or typo), P1 = F1/R1 by number)"
E2Fa promoter probe P2 (E2Fa-BIO-F2/R2) (dsDNA) DNA 1: CGTGTAGAGTTGCGATTTGCAGAGAATTGTGATTCTACAATTGGAGGCAAGATGATGAATGTGTGAACTGATTAGCGTAA DNA 2: TTACGCTAATCAGTTCACACATTCATCATCTTGCCTCCAATTGTAGAATCACAATTCTCTGCAAATCGCAACTCTACACG,binds,
E2Fa promoter probe P1 (E2Fa-BIO-F1/R1) (dsDNA) DNA 1: CGTGAAATGCCAGTGGTCTATGATCGGATTCTCTGTTTCCCGTTCTCCTTCTTTTTTTGGGCCTTAAATCCGTTT DNA 2: AAACGGATTTAAGGCCCAAAAAAAGAAGGAGAACGGAAACAGAGAATCCGATCATAGACCACTGGCATTTCACG,,binds
